Patent publication US20180057581A1
Positions count from the first letter of the chain named.

B1: Satine, IgG1_D265A (antibody, V domains shown)
VH: EVQLVESGGGLVKPGGSLRLSCAASGFTFSIYAMSWVRQAPGKGLEWVGRIKSNADGGTTEYAAPVKGRFTISRDDSKNTLYLQMNSLKTEDTAVYYCARMRYYSDLYFDPWGQGTLVTVSS
VL: SYELTQPPSVSVSPGQTASITCSGDKLGQKYVSWYQQKPGQSPVLVISQDRKRPSGIPERFSGSNSGNTATLTISGTQAEDEADYYCQTWTHLQWVFGGGTKLTVLG
B2: Romaine, IgG1_D265A (antibody, V domains shown)
VH: B1 VH
VL: DIELTQPPSVSVSPGQTASITCSGDAIGSKYVHWYQQKPGQAPVLVISKDNKRPSGIPERFSGSNSGNTATLTISGTQAEDEADYYCQTATVSSYWWVFGGGTKLTVLG
B3: Madeleine, IgG1_D265A (antibody, V domains shown)
VH: QVQLQQSGPGLVKPSQTLSLTCAISGDSVSSNSAAWNWIRQSPSRGLEWLGRTYYRSKWKKEYAQSVKSRITINPDTSKNQFSLQLNSVTPEDTAVYYCARDRYYYSAFDYWGQGTLVTVSS
VL: QSALTQPASVSGSPGQSITISCTGTSSDVGGYNSVSWYQQHPGKAPKLMIYAVSNRPSGVSNRFSGSKSGNTASLTISGLQAEDEADYYCASYDERFTRVFGGGTKLTVLG
B4: Caline, IgG1_D265A (antibody, V domains shown)
VH: B3 VH with K61H, Q65M
VL: B3 VL
B5: Maelle, IgG1_D265A (antibody, V domains shown)
VH: B3 VH with D27E, S31T, N32S
VL: B3 VL with M49I
B6: Laurine, IgG1_D265A (antibody, V domains shown)
VH: B3 VH
VL: B3 VL with Q1D, S2I
B7: Meriem, IgG1_D265A (antibody, V domains shown)
VH: B3 VH with S31T, N32S
VL: B3 VL with M49I
B8: Blanche, IgG1_D265A (antibody, V domains shown)
VH: B3 VH with K61H, Q65M
VL: B3 VL with Q1D, S2I
B9: Celine, IgG1_D265A (antibody, V domains shown)
VH: B3 VH with S31T, N32S, K61H, Q65V
VL: B3 VL with M49I
B10: HeRX1-10G1, IgG1 (antibody, V domains shown)
VH: QVQLQESGPGLVKPSQTLSLTCTVSDYSITSDYAWNWIRQFPGKGLEWMGYISYSGSTSYNPSLKSRITISRDTSKNQFSLQLNSVTAADTAVYYCASFDYAHAMDYWGQGTTVTVSS
VL: DIVLTQSPAFLSVTPGEKVTFTCQASQSIGTSIHWYQQKTDQAPKLLIKYASESISGIPSRFSGSGSGTDFTLTISSVEAEDAADYYCQQINSWPTTFGGGTKLEIKR
B11: HeRX1-10G1, IgG1_D265A (antibody, V domains shown)
VH: B10 VH
VL: B10 VL
B12: Romaine, IgG1_D265A (antibody, V domains shown)
VH: B1 VH
VL: DIELTQPPSVSVSPGQTASITCSGDAIGSKYVHWYQQKPGQAPVLVISKDNKRPSGIPERFSGSNSGNTATLTISGTQAEDEADYYCQTATVSSYWWVFGGGTKLTVLGQ
B13: Satine, IgG1_D265A (antibody, V domains shown)
VH: B1 VH
VL: SYELTQPPSVSVSPGQTASITCSGDKLGQKYVSWYQQKPGQSPVLVISQDRKRPSGIPERFSGSNSGNTATLTISGTQAEDEADYYCQTWTHLQWVFGGGTKLTVLGQ
B14: Servane, IgG1_D265A (antibody, V domains shown)
VH: B1 VH with I31T, M34I, R50F, N54K, A55H, D56N, G57S
VL: B13 VL
B15: Blanche, IgG1_D265A (antibody, V domains shown)
VH: B3 VH with K61H, Q65M
VL: DIALTQPASVSGSPGQSITISCTGTSSDVGGYNSVSWYQQHPGKAPKLMIYAVSNRPSGVSNRFSGSKSGNTASLTISGLQAEDEADYYCASYDERFTRVFGGGTKLTVLGQ
B16: Maelle, IgG1_D265A (antibody, V domains shown)
VH: B3 VH with D27E, S31T, N32S
VL: B15 VL with D1Q, I2S, M49I
B17: Meriem, IgG1_D265A (antibody, V domains shown)
VH: B3 VH with S31T, N32S
VL: B15 VL with D1Q, I2S, M49I
B18: Caline, IgG1_D265A (antibody, V domains shown)
VH: B3 VH with K61H, Q65M
VL: B15 VL with D1Q, I2S
B19: Laurine, IgG1_D265A (antibody, V domains shown)
VH: B3 VH
VL: B15 VL
B20: Camille (format not stated) (antibody, V domains shown)
VH: B3 VH with D27E, S31T, N32S, K61H, Q65V
VL: B15 VL with D1Q, I2S, M49L
B21: Celine, IgG1_D265A (antibody, V domains shown)
VH: B3 VH with S31T, N32S, K61H, Q65V
VL: B15 VL with D1Q, I2S, M49I
B22: Madeleine, IgG1_D265A (antibody, V domains shown)
VH: B3 VH
VL: B15 VL with D1Q, I2S
B23: Camille, IgG1_D265A (antibody, V domains shown)
VH: B3 VH with D27E, S31T, N32S, K61H, Q65V
VL: B15 VL with D1Q, I2S, M49L
B24: HeRX1-10G1, IgG1 (antibody, V domains shown)
VH: B10 VH
VL: DIVLTQSPAFLSVTPGEKVTFTCQASQSIGTSIHWYQQKTDQAPKLLIKYASESISGIPSRFSGSGSGTDFTLTISSVEAEDAADYYCQQINSWPTTFGGGTKLEIKRT
B25: HeRX1-10G1 (format not stated) (antibody, V domains shown)
VH: B10 VH
VL: B24 VL
B26: HeRX1-10G1, IgG1_D265A (antibody, V domains shown)
VH: B10 VH
VL: B24 VL

biological target: M-CSF endogenously expressed on MDA-MB-231 cells (human) (UniProt P09603); assay: FACS, MDA-MB-231 cells endogenously expressing M-CSF (n = 2)

For B1, which EC50 is on record?
The EC50 was 26 nM.

With B2 as the binder, how does the EC50 read?
The EC50 was 19 nM.

For B3, which EC50 is on record?
The EC50 was 10 nM.

B4 was tested. Which EC50 did it give?
Its EC50 is 14 nM.

Which EC50 does the source give for B5 here?
The EC50 was 8 nM.

How did the EC50 turn out when B6 was run?
Its EC50 is 9 nM.

How did the EC50 turn out when B7 was run?
Its EC50 is 10 nM.

For B8, which EC50 is on record?
The EC50 was 10 nM.

With B9 as the binder, how does the EC50 read?
The EC50 was 13 nM.

Which EC50 does the source give for B10 here?
The EC50 was 27 nM.

How did the EC50 turn out when B11 was run?
The EC50 was 23 nM.

biological target: native human M-CSF (in human serum or in MDA-MB-231 conditioned medium) (human), P09603; assay: cell-based or functional assay
Sequence (P09603 33-255): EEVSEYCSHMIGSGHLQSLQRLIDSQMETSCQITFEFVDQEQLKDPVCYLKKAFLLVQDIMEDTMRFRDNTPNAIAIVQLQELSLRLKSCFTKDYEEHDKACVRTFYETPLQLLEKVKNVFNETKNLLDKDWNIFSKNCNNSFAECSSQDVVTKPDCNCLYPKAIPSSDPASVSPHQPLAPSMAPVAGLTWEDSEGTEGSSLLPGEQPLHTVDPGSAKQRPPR

Which results are given for B12?
IC50, inhibition of M-NFS-60 proliferation induced by MDA-MB-231 conditioned medium: 83.3 pM; IC50, inhibition of M-NFS-60 proliferation induced by human serum (50%): 25.2 pM

Which IC50, inhibition of M-NFS-60 proliferation induced by MDA-MB-231 conditioned medium does the source give for B13 here?
The IC50, inhibition of M-NFS-60 proliferation induced by MDA-MB-231 conditioned medium was 70.8 pM.

And the IC50, inhibition of M-NFS-60 proliferation induced by human serum (50%)?
Its IC50, inhibition of M-NFS-60 proliferation induced by human serum (50%) is 31.8 pM.

With B14 as the binder, how does the IC50, inhibition of M-NFS-60 proliferation induced by MDA-MB-231 conditioned medium read?
The IC50, inhibition of M-NFS-60 proliferation induced by MDA-MB-231 conditioned medium was 107 pM.

What about the IC50, inhibition of M-NFS-60 proliferation induced by human serum (50%) of the same binder?
The IC50, inhibition of M-NFS-60 proliferation induced by human serum (50%) was 93.2 pM.

B15 was tested. Which IC50, inhibition of M-NFS-60 proliferation induced by MDA-MB-231 conditioned medium did it give?
Its IC50, inhibition of M-NFS-60 proliferation induced by MDA-MB-231 conditioned medium is 120 pM.

And the IC50, inhibition of M-NFS-60 proliferation induced by human serum (50%)?
The IC50, inhibition of M-NFS-60 proliferation induced by human serum (50%) was 18.3 pM.

Which IC50, inhibition of M-NFS-60 proliferation induced by MDA-MB-231 conditioned medium does the source give for B16 here?
The IC50, inhibition of M-NFS-60 proliferation induced by MDA-MB-231 conditioned medium was 98.9 pM.

And the IC50, inhibition of M-NFS-60 proliferation induced by human serum (50%)?
The IC50, inhibition of M-NFS-60 proliferation induced by human serum (50%) was 16 pM.

What does the source list for B17?
IC50, inhibition of M-NFS-60 proliferation induced by MDA-MB-231 conditioned medium: 76.9 pM; IC50, inhibition of M-NFS-60 proliferation induced by human serum (50%): 15.1 pM

Which results are given for B18?
IC50, inhibition of M-NFS-60 proliferation induced by MDA-MB-231 conditioned medium: 107 pM; IC50, inhibition of M-NFS-60 proliferation induced by human serum (50%): 17.7 pM

Which IC50, inhibition of M-NFS-60 proliferation induced by MDA-MB-231 conditioned medium does the source give for B19 here?
Its IC50, inhibition of M-NFS-60 proliferation induced by MDA-MB-231 conditioned medium is 95 pM.

And the IC50, inhibition of M-NFS-60 proliferation induced by human serum (50%)?
Its IC50, inhibition of M-NFS-60 proliferation induced by human serum (50%) is 15.6 pM.

How did the Cell viability assay (IC50), Human serum M-CSF turn out when B20 was run?
Its Cell viability assay (IC50), Human serum M-CSF is 18 pM.

And the Cell viability assay (IC50), MDA-MB-231?
The Cell viability assay (IC50), MDA-MB-231 was 99 pM.

B21 was tested. Which IC50, inhibition of M-NFS-60 proliferation induced by MDA-MB-231 conditioned medium did it give?
Its IC50, inhibition of M-NFS-60 proliferation induced by MDA-MB-231 conditioned medium is 72.4 pM.

What about the IC50, inhibition of M-NFS-60 proliferation induced by human serum (50%) of the same binder?
Its IC50, inhibition of M-NFS-60 proliferation induced by human serum (50%) is 23.8 pM.

Which results are given for B22?
IC50, inhibition of M-NFS-60 proliferation induced by MDA-MB-231 conditioned medium: 75.4 pM; IC50, inhibition of M-NFS-60 proliferation induced by human serum (50%): 20 pM

For B23, which IC50, inhibition of M-NFS-60 proliferation induced by MDA-MB-231 conditioned medium is on record?
Its IC50, inhibition of M-NFS-60 proliferation induced by MDA-MB-231 conditioned medium is 98.5 pM.

And the IC50, inhibition of M-NFS-60 proliferation induced by human serum (50%)?
The IC50, inhibition of M-NFS-60 proliferation induced by human serum (50%) was 17.7 pM.

Which IC50, inhibition of M-NFS-60 proliferation induced by MDA-MB-231 conditioned medium does the source give for B24 here?
Its IC50, inhibition of M-NFS-60 proliferation induced by MDA-MB-231 conditioned medium is 90.3 pM.

What about the IC50, inhibition of M-NFS-60 proliferation induced by human serum (50%) of the same binder?
The IC50, inhibition of M-NFS-60 proliferation induced by human serum (50%) was 15.4 pM.

What does the source list for B25?
Cell viability assay (IC50), Human serum M-CSF: 15 pM; Cell viability assay (IC50), MDA-MB-231: 90 pM

For B26, which IC50, inhibition of M-NFS-60 proliferation induced by MDA-MB-231 conditioned medium is on record?
The IC50, inhibition of M-NFS-60 proliferation induced by MDA-MB-231 conditioned medium was 59.1 pM.

And the IC50, inhibition of M-NFS-60 proliferation induced by human serum (50%)?
Its IC50, inhibition of M-NFS-60 proliferation induced by human serum (50%) is 12.4 pM.
